Earlier results, collected in PMC7920998.

Tested on: Glu122
Assay: kinetics
Settings: enzyme reacting with O2 (non-native substrate); further details not given

Substance: Cytochrome c-dependent nitric oxide reductase (cNOR, PdNOR) (Paracoccus denitrificans)
- pKa: ~ 6.6
